# Source: the RNAGym collection of RNA variant scans (doi:10.1073/pnas.2313332121)
# This sample holds only a part of the variants without activity.
# B1: TPR 5TU (parent)
# chain: GGAUCUUCUCGAUCUAACAAAAAAGACAAAUCUGCCACAAAGCUUGAGAGCAUCUUCGGAUGCAGAGGCGGCAGCCUUCGGUGGCGCGAUAGCGCCAACGUUCUCAACUAUGACACGCAAAACGCGUGCUCCGUUGAAUGGAGUUUAUCAUG
# Variants of: B1
# Assay: polymerase ribozyme fitness, log enrichment relative to wild type (log ratio); higher = more active; in vitro selection for triplet polymerase activity
# Procedure, shortened: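 Fitness compares each genotype's enrichment to that of the wild type on a logarithmic scale, averaging replicates with inverse-variance weights. The logarithm is base 2. Enrichment came from Illumina sequencing of input and output libraries after one triplicate round of in vitro selection, which included frozen incubation at −7 °C, of PCR-built, transcribed mutant libraries of each subunit of a heterodimeric triplet polymerase ribozyme. Only genotypes with ≥10 input reads and ≥1 read per output were kept.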
row,Variant,polymerase ribozyme fitness (log ratio)
1,A39U C93U,-3.36
2,A47C A52U U82A A120U,-1.94
3,C8G G42A G59U A66U C87G U139G,≤ -4.2
4,C35A C76U,-3.95
5,G71C G80C C95G U104G C116U,≤ -4.2
6,A12U A49U C54G C93G,≤ -4.2
7,C32G G58A G84A A107G G124C U130G,≤ -4.2
8,A24C G58A G59A A147C,≤ -4.2
9,G71U G80C C95U U127A,-3.97
10,G25C G94A,-3.16
11,A12U C87U A120U,-0.814
12,A26G G83A G88A G94U C149G,-4.19
13,A17U A40G C54U G83A A91C G126C,≤ -4.2
14,A60U C76A A120U,-1.94
15,A26U U31A G86U A147C,≤ -4.2
16,A106G A120U A121G A122G G143C,-2.43
17,C5A C57G C75U G86A A91C,-4.01
18,A91C C114U U139C,≤ -4.2
19,C57G C75U G86A A91C,≤ -4.2
20,C38U G70A,-2.9
21,A12G G42A G62A U101C C105G U134G,≤ -4.2

row,Variant,polymerase ribozyme fitness (log ratio)
1,C14U A23U U56C C87U U90G,≤ -4.2
2,A98G A107U,-3.24
3,C8G C57A G84U C114U U148C A150C,≤ -4.2
4,U31C G34A U78C G83C U145G,≤ -4.2
5,G46U A120C,-0.32
6,C54U C85G C93U A97C A137U U139G,≤ -4.2
7,C14U A21G C38G C57A C79U A138C U148C,≤ -4.2
8,A73G A142G,-1.38
9,A3C A16G A24U G48U G74U G83A A107C U130A,≤ -4.2
10,C51A C85A,-2.75
11,G50C G80A C85U C87U C108U,≤ -4.2
12,C27A C93U C116U G126A A147G,≤ -4.2
13,U53A U56G A115U A120G,-2.77
14,A16U A19U C32G A60U A91U C99U A138C,≤ -4.2
15,C51U C85U,-0.8
16,C51A C95U A119G,-1.34
17,U61A C76A C87U,-3.68
18,U53A U148A,-3.17
19,A49G U53A,-1.54
20,A22U G50C U53G G88C C93U C96U C108U,≤ -4.2
21,G50U C72U A97C,-0.611

row,Variant,polymerase ribozyme fitness (log ratio)
1,C76A A121G,0.0173
2,A16G C38U U82A C96G,-1
3,U7G C75G G84A G141A,≤ -4.2
4,U33A U145C,-4
5,C14U A66C U78G C95G C108U,≤ -4.2
6,A30U U77G G84U C129G G152C,≤ -4.2
7,A20U A22U A52C G67A U127A,≤ -4.2
8,G50C G94A U127C G133U A138C,≤ -4.2
9,A17G A19U,0.00969
10,A28G A41C G42U A66G C96G G133U U144G,-4.13
11,C10G C85G G92A C125G,≤ -4.2
12,A17G U61A G71A G143A,≤ -4.2
13,G42A C114G G133U A150C,≤ -4.2
14,C57A G58U C76A C85U C96U A147G,-3.03
15,A12C C54U,-0.207
16,C87U G141A,-0.85
17,U31A A91G U144G,-1.84
18,A26G U53A C85U A91G G133A U139A,≤ -4.2
19,A20U G58C C85U A98U C129U U134C,-1.85
20,U44A G62A G84A U134A,≤ -4.2
21,C36A A97U U101C U139A,≤ -4.2

row,Variant,polymerase ribozyme fitness (log ratio)
1,U9G A29G C85U A121U G128U,≤ -4.2
2,A16U C27A G42A U44G U45A A49C A113G U144A,≤ -4.2
3,A19U A26C G46U C93A C95G C108A U151G,≤ -4.2
4,G92A G124A,-2.65
5,A73G G92C,-0.498
6,A19U G94C,-0.449
7,A28C C57U U82C C85G U111G A137U,≤ -4.2
8,G46A U56A U82C C93A A107G C125U G136U,≤ -4.2
9,A16C A89U A91U U127C,≤ -4.2
10,C14U G46A A47C C57A G65C G86U C96U,≤ -4.2
11,U61A C76A,-3.6
12,C32G C87A A107G,≤ -4.2
13,C27A C32U G46A G86U C105A,≤ -4.2
14,C8U G94A,-3.24
15,U9G A19C A23G A39G C93G U139A G152U,≤ -4.2
16,A23C A39U G46U U90A C96A C99U C114G G141C,≤ -4.2
17,U31G C54U U109G A137G,-2.71
18,A47U C87U A91U C95U C114G A120C,≤ -4.2
19,A12G U53A U56A U82G A91U G117C A142G,-4.16
20,C8A U53A A73U G74U G92U A142U G143A,≤ -4.2
21,G46C C93U,-2.47
